Legend:
[1] = biological target: T1, Vsx1 homeodomain (Vsx1-Homeodomain-His) (zebrafish, UniProt O42250 132-224); assay: competition; 500-fold or more excess against biotin site 14 probe; no competition; LightShift Chemiluminescent EMSA kit (Pierce), 6% native PAGE; binding buffer as in He et al. [23], salt, pH and temperature not given; settings: protein: recombinant; tags: His in the Results; label: none
[2] = biological target: T1, Vsx1 homeodomain (Vsx1-Homeodomain-His); assay: EMSA; LightShift Chemiluminescent EMSA kit (Pierce), 6% native PAGE; binding buffer as in He et al. [23], salt, pH and temperature not given; settings: protein: recombinant; tags: His in the Results; label: biotin 5' end (labeled probe)
[3] = biological target: T1, Vsx1 homeodomain (Vsx1-Homeodomain-His); assay: competition; 500-fold excess against biotin site 12 probe; only weak complex left; LightShift Chemiluminescent EMSA kit (Pierce), 6% native PAGE; binding buffer as in He et al. [23], salt, pH and temperature not given; settings: protein: recombinant; tags: His in the Results; label: none
[4] = biological target: T1, Vsx1 homeodomain (Vsx1-Homeodomain-His); assay: competition; 500-fold excess against biotin site 14 probe; only weak complex left; LightShift Chemiluminescent EMSA kit (Pierce), 6% native PAGE; binding buffer as in He et al. [23], salt, pH and temperature not given; settings: protein: recombinant; tags: His in the Results; label: none
[5] = biological target: T1, Vsx1 homeodomain (Vsx1-Homeodomain-His); assay: competition; 500-fold or more excess against biotin site 12 probe; no competition; LightShift Chemiluminescent EMSA kit (Pierce), 6% native PAGE; binding buffer as in He et al. [23], salt, pH and temperature not given; settings: protein: recombinant; tags: His in the Results; label: none

T1 sequence (O42250 132-224): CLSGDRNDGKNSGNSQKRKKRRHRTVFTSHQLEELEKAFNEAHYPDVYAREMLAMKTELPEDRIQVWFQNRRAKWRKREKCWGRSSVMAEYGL

B1: tal1 site 14 mutant competitor (TAATTA to TCGATA) (dsDNA)
DNA 1: ACGCAGATCATCGATAGGCGTTTGATC
DNA 2: GATCAAACGCCTATCGATGATCTGCGT
[1]
  binding result: no binding

B2: tal1 binding site 14 probe (dsDNA)
DNA 1: ACGCAGATCATAATTAGGCGTTTGATC
DNA 2: GATCAAACGCCTAATTATGATCTGCGT
[2]
  binding result: binds

B3: tal1 site 12 unlabeled wild-type competitor (dsDNA)
DNA 1: TGGCCGCATAATTAATTTCTGATTGAG
DNA 2: CTCAATCAGAAATTAATTATGCGGCCA
[3]
  binding result: binds

B4: tal1 binding site 12 probe (dsDNA)
DNA 1: TGGCCGCATAATTAATTTCTGATTGAG
DNA 2: CTCAATCAGAAATTAATTATGCGGCCA
[2]
  binding result: binds

B5: tal1 site 14 unlabeled wild-type competitor (dsDNA)
DNA 1: ACGCAGATCATAATTAGGCGTTTGATC
DNA 2: GATCAAACGCCTAATTATGATCTGCGT
[4]
  binding result: binds

B6: tal1 site 12 mutant competitor (TAATTA to TCGATA) (dsDNA)
DNA 1: TGGCCGCATCGATCGATTCTGATTGAG
DNA 2: CTCAATCAGAATCGATCGATGCGGCCA
[5]
  binding result: no binding
